Reference: the supplement of paper PMC10126150
± gives the standard deviation of the averaged measurements.

Tested on: ATP
Experiment: switch fluorescence ratio, 500 uM ATP over buffer (Cy3 cluster intensity, sum of 5 cycles each) (fold (ratio)); higher = stronger signal-on switching upon ATP binding; sequences stand for … in TCGTCGGCAGCGTCAGATGTGTATAAGAGACAGTTTTTTTTTTTTTTTTTTTTTTTTT…TC
Conditions: aptamer strand: ATP DNA aptamer (quencher-CACCTGGGGGAGTATTGCGGAGGAAGG + anchor), 100 nM annealed; ATP concentration: 500 uM
Summary of the method: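 Cy3-labelled switching-strand clusters on a modified Illumina MiSeq flow-cell were annealed to 100 nM quencher-labelled ATP aptamer, imaged in selection buffer, then imaged after 15 min with 500 uM ATP at 22 °C. Five buffer/ATP cycles ran, with NaOH stripping and re-annealing between them. The fluorescence ratio is summed target-cycle over summed buffer-cycle Cy3 intensity per cluster, averaged per switch-domain sequence. Clusters outside 100-1000 RFU were excluded.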
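Further: ATP exposure 15 min at 22 °C before imaging.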

Sequence	switch fluorescence ratio
AATCAGAGCG	1.021 ± 0.0021
AATCAGGAAG	1.02 ± 0.035
AATCAGGCGA	1.013 ± 0.0032
AATCATCGGT	0.999 ± 0.027
AATCATGCGA	0.9964 ± 0.0078
AATCATTTTT	0.986 ± 0.026
AATCCGACGA	1.66 ± 0.17
AATCCGTCAT	1.14 ± 0.017
AATCGATCGG	1.01 ± 0.028
AATCGCTCTG	1.01 ± 0.027
AATCGCTTTT	1 ± 0.053
AATCGGCGGG	0.975 ± 0.022
AATCGGTCGT	0.994 ± 0.031
AATCGGTTTG	0.987 ± 0.029
AATCGTCATC	0.991 ± 0.016
AATCGTCTTG	0.97 ± 0.034
AATCGTGGAA	1.01 ± 0.019
AATCGTGGGG	0.975 ± 0.017
AATCTAGATT	1.002 ± 0.003
AATCTATCCC	1.027 ± 0.0042
AATCTGATGG	0.974 ± 0.044
AATCTGGACG	1.06 ± 0.048
AATCTGTCGT	0.982 ± 0.054
AATCTTCTTA	1.001 ± 0.0034
AATGAAAAAC	1.007 ± 0.0054

Sequence	switch fluorescence ratio
AATGAACGTT	1.03 ± 0.078
AATGAAGTTT	1.43 ± 0.7
AATGAGACAG	1 ± 0.02
AATGAGATTG	0.989 ± 0.012
AATGAGGGGT	0.966 ± 0.031
AATGATAGTT	0.986 ± 0.02
AATGATATTG	0.998 ± 0.032
AATGATTCTT	0.98 ± 0.016
AATGATTGCG	1 ± 0.039
AATGCGTTTT	1.04 ± 0.023
AATGCTCGGC	0.9646 ± 0.0092
AATGCTGTAT	0.985 ± 0.011
AATGGAATCC	1.02 ± 0.035
AATGGAATTG	0.9965 ± 0.005
AATGGAGAAC	1.01 ± 0.028
AATGGATGCG	1 ± 0.029
AATGGATTGG	0.997 ± 0.018
AATGGCGGGC	1.01 ± 0.029
AATGGGCGCT	0.97198 ± 0.00095
AATGGGGACA	0.995 ± 0.051
AATGGGGACG	0.985 ± 0.021
AATGGGGACT	1 ± 0.012
AATGGGGGGC	1 ± 0.041
AATGGGGTGT	0.987 ± 0.021
AATGGGTGAA	0.97511 ± 0.00091

Sequence	switch fluorescence ratio
AATGGGTGGG	1 ± 0.062
AATGGGTGTG	1.01 ± 0.023
AATGGTAGAA	0.986 ± 0.048
AATGGTGATG	0.9904 ± 0.0077
AATGGTTTTC	0.9948 ± 0.0023
AATGTAAAAC	1.06 ± 0.066
AATGTAATAA	1.05 ± 0.084
AATGTAGGGG	1.02 ± 0.045
AATGTAGTTG	1.02 ± 0.027
AATGTGAGAC	1.07 ± 0.073
AATGTGCAAA	1.01 ± 0.022
AATGTGGGCC	1.024 ± 0.0013
AATGTGGGGT	0.995 ± 0.026
AATGTGGTCT	0.994 ± 0.021
AATGTTAATG	0.94 ± 0.019
AATGTTCGGT	0.989 ± 0.011
AATGTTCTTT	0.977 ± 0.062
AATGTTGGAG	0.985 ± 0.028
AATGTTGTGC	0.9381 ± 0.0049
AATGTTTGGG	0.981 ± 0.021
AATGTTTGTC	1.03 ± 0.1
AATGTTTTTG	1.02 ± 0.046
AATTAAAGGG	1.03 ± 0.066
AATTAAATA	0.979 ± 0.037
AATTAACTTT	0.985 ± 0.023

Sequence	switch fluorescence ratio
AATTAGGGAA	1.01 ± 0.023
AATTATACAT	1.04 ± 0.043
AATTATATCA	1.01 ± 0.01
AATTATGATG	0.9948 ± 0.0069
AATTATGGGC	1.023 ± 0.0064
AATTATGTAG	1 ± 0.014
AATTATGTTT	0.995 ± 0.03
AATTCCGAGG	1.14 ± 0.021
AATTCGGATG	1.02 ± 0.034
AATTCGTGAA	1.01 ± 0.013
AATTCTGGCT	1.006 ± 0.0071
AATTGAAAAA	1.05 ± 0.069
AATTGAAAAT	0.967 ± 0.0073
AATTGATTAG	1.03 ± 0.038
AATTGATTCT	1.026 ± 0.0018
AATTGCTCGT	1 ± 0.016
AATTGG	0.992 ± 0.018
AATTGGAGTG	0.998 ± 0.041
AATTGGCGGT	1.03 ± 0.027
AATTGGGGTA	0.989 ± 0.026
AATTGGGGTC	0.967 ± 0.031
AATTGGGTTA	0.976 ± 0.023
AATTGGTCCT	0.986 ± 0.041
AATTGGTGCG	0.985 ± 0.035
AATTGTATCA	1 ± 0.054

Sequence	switch fluorescence ratio
AATTGTATCT	1.01 ± 0.063
AATTGTGGGC	0.978 ± 0.047
AATTGTTAGT	0.994 ± 0.03
AATTGTTATT	0.9919 ± 0.0034
AATTGTTGCG	0.974 ± 0.015
AATTTAAGGC	0.985 ± 0.078
AATTTACTCT	1.07 ± 0.018
AATTTACTGG	1.13 ± 0.084
AATTTAGCCA	1.02 ± 0.018
AATTTAGGAA	0.975 ± 0.037
AATTTATAAT	1.01 ± 0.036
AATTTCAAGT	1 ± 0.039
AATTTCATGT	1.01 ± 0.012
AATTTGAGCC	0.965 ± 0.039
AATTTGGCGT	0.968 ± 0.011
AATTTGGCTG	1.22 ± 0.29
AATTTGGGAG	1.01 ± 0.025
AATTTGGGTC	0.981 ± 0.016
AATTTGGGTG	1.04 ± 0.049
AATTTGTCAT	0.972 ± 0.045
AATTTGTTGG	0.996 ± 0.017
AATTTGTTGT	0.996 ± 0.025
AATTTTAAAT	1.09 ± 0.21
AATTTTAACT	1.022 ± 0.0064
AATTTTGATG	0.971 ± 0.018

Sequence	switch fluorescence ratio
AATTTTTAAG	0.997 ± 0.011
AATTTTTCAG	0.985 ± 0.018
AATTTTTCGT	1 ± 0.027
AATTTTTGTC	1.01 ± 0.023
AATTTTTTTC	0.989 ± 0.015
ACAAAAATAG	0.993 ± 0.04
ACAAACCACC	1.34 ± 0.057
ACAAACGGCA	1.33 ± 0.024
ACAAAGGGAC	1.06 ± 0.12
ACAAAGGGGG	0.92 ± 0.087
ACAAAGGTCG	1.01 ± 0.022
ACAAATATAT	1.17 ± 0.081
ACAAATGGCA	1.07 ± 0.037
ACAACCGCTT	1.13 ± 0.017
ACAACGAAAG	1.039 ± 0.0061
ACAACGAGGT	1.015 ± 0.0093
ACAACTCAGG	1.22 ± 0.022
ACAAGATACG	1.13 ± 0.013
ACAAGGATTC	0.995 ± 0.025
ACAAGGGAGA	1.06 ± 0.012
ACAAGTGACG	0.988 ± 0.026
ACAAGTGTTC	1 ± 0.051
ACAAGTTGGA	1.11 ± 0.061
ACAATATGGG	1.01 ± 0.079
ACAATGGCAC	1.06 ± 0.029

Sequence	switch fluorescence ratio
ACAATTGACT	1.099 ± 0.0039
ACAATTGGAG	0.9969 ± 0.0044
ACACAATAGG	1.04 ± 0.025
ACACAGTAGT	1.03 ± 0.011
ACACCGTCTA	1.11 ± 0.023
ACACCTTTTT	1.04 ± 0.032
ACACGCGCCT	1.08 ± 0.011
ACACGGGAAG	1.02 ± 0.011
ACACGGGATG	1.06 ± 0.077
ACACGGGGTG	1.018 ± 0.0018
ACACGTAACT	1.359 ± 0.0099
ACACGTTGGC	1.05 ± 0.06
ACACTAGGTG	1.42 ± 0.023
ACACTGCTTA	1.02 ± 0.044
ACACTTTACT	1.32 ± 0.014
ACAGAAAGAC	1.15 ± 0.27
ACAGAAGGGA	1.03 ± 0.068
ACAGATAAAG	0.97 ± 0.045
ACAGCAGTGT	1.03 ± 0.035
ACAGCATGGA	1.04 ± 0.048
ACAGCATTTT	1.03 ± 0.0072
ACAGCCTGCC	1.3 ± 0.07
ACAGCGGGTG	1.087 ± 0.01
ACAGCTTCTA	1.03 ± 0.021
ACAGCTTTTT	1.01 ± 0.013

Sequence	switch fluorescence ratio
ACAGGGATCA	0.981 ± 0.052
ACAGGGGGCC	1.08 ± 0.12
ACAGGGGGGA	1.05 ± 0.046
ACAGGGGGTA	1.02 ± 0.024
ACAGGGTTGG	1.02 ± 0.03
ACAGGGTTGT	0.979 ± 0.013
ACAGTAAGAG	1.03 ± 0.049
ACAGTAAGTT	1.07 ± 0.016
ACAGTCGGGC	1.001 ± 0.0073
ACAGTGTCTT	1.01 ± 0.03
ACAGTTATTG	1.016 ± 0.0077
ACAGTTCGGG	0.9653 ± 0.0051
ACAGTTGGCC	1.02 ± 0.021
ACAGTTGGCT	1.0179 ± 0.00096
ACAGTTGTAT	1.015 ± 0.01
ACATAATTGA	1.03 ± 0.017
ACATACGAAC	1.38 ± 0.098
ACATAGCTGG	1.01 ± 0.029
ACATAGCTTT	1.03 ± 0.036
ACATAGGAAC	1.024 ± 0.004
ACATATCTTT	1.025 ± 0.0012
ACATATGGGC	0.974 ± 0.037
ACATATTTTG	1.01 ± 0.033
ACATCAATTC	1.1 ± 0.014
ACATCGGGCT	1.02 ± 0.027
